Assay results taken from US20150344570A1 (published 2015).

T1: FcγRIIb (human, UniProt P31994 43-217)
T1 construct: extracellular domain; Soluble extracellular domain with C-terminal His tag, used as analyte in Biacore; also called FcgRIIb; 2b; not shown: His tag attached to the C terminus
T1 sequence (looked up): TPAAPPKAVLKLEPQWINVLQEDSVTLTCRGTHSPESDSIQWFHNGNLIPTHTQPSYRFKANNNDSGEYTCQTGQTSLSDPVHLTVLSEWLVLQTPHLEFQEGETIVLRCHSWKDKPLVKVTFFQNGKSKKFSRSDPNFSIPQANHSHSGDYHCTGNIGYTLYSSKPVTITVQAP

B1: GpH7-A5/GpH7-B3 variant A327_01G/GpL16-k0 (antibody, human IgG1, kappa)
heavy 1: not shown
heavy 2: not shown
light: DIVMTQSPLSLPVTPGEPASISCQASESLVHSNRNTYLHWYLQKPGQSPQLLIYKVSNRFSGVPDRFSGSGSGTDFTLKISRVEAEDVGVYYCSQNTHVPPTFGQGTKVEIERTVAAPSVFIFPPSDEQLKSGTASVVCLLNNFYPREAKVQWKVDNALQSGNSQESVTEQDSKDSTYSLSSTLTLSKADYEKHKVYACEVTHQGLSSPVTKSFNRGEC
notes: Heterodimerized anti-glypican-3 IgG1; alteration in the GpH7-B3 chain only; also called He Ab
B2: GpH7-A5/GpH7-B3 variant G237_13S/GpL16-k0 (antibody, human IgG1, kappa)
heavy 1: not shown
heavy 2: not shown
light: DIVMTQSPLSLPVTPGEPASISCQASESLVHSNRNTYLHWYLQKPGQSPQLLIYKVSNRFSGVPDRFSGSGSGTDFTLKISRVEAEDVGVYYCSQNTHVPPTFGQGTKVEIERTVAAPSVFIFPPSDEQLKSGTASVVCLLNNFYPREAKVQWKVDNALQSGNSQESVTEQDSKDSTYSLSSTLTLSKADYEKHKVYACEVTHQGLSSPVTKSFNRGEC
notes: as for B1
B3: GpH7-A5/GpH7-B3 variant N325_09D/GpL16-k0 (antibody, human IgG1, kappa)
heavy 1: not shown
heavy 2: not shown
light: DIVMTQSPLSLPVTPGEPASISCQASESLVHSNRNTYLHWYLQKPGQSPQLLIYKVSNRFSGVPDRFSGSGSGTDFTLKISRVEAEDVGVYYCSQNTHVPPTFGQGTKVEIERTVAAPSVFIFPPSDEQLKSGTASVVCLLNNFYPREAKVQWKVDNALQSGNSQESVTEQDSKDSTYSLSSTLTLSKADYEKHKVYACEVTHQGLSSPVTKSFNRGEC
notes: as for B1
B4: GpH7-A5/GpH7-B3 variant L328_13S/GpL16-k0 (antibody, human IgG1, kappa)
heavy 1: not shown
heavy 2: not shown
light: DIVMTQSPLSLPVTPGEPASISCQASESLVHSNRNTYLHWYLQKPGQSPQLLIYKVSNRFSGVPDRFSGSGSGTDFTLKISRVEAEDVGVYYCSQNTHVPPTFGQGTKVEIERTVAAPSVFIFPPSDEQLKSGTASVVCLLNNFYPREAKVQWKVDNALQSGNSQESVTEQDSKDSTYSLSSTLTLSKADYEKHKVYACEVTHQGLSSPVTKSFNRGEC
notes: as for B1
B5: GpH7-A5/GpH7-B3 variant N325_06M/GpL16-k0 (antibody, human IgG1, kappa)
heavy 1: not shown
heavy 2: not shown
light: DIVMTQSPLSLPVTPGEPASISCQASESLVHSNRNTYLHWYLQKPGQSPQLLIYKVSNRFSGVPDRFSGSGSGTDFTLKISRVEAEDVGVYYCSQNTHVPPTFGQGTKVEIERTVAAPSVFIFPPSDEQLKSGTASVVCLLNNFYPREAKVQWKVDNALQSGNSQESVTEQDSKDSTYSLSSTLTLSKADYEKHKVYACEVTHQGLSSPVTKSFNRGEC
notes: as for B1
B6: GpH7-A5/GpH7-B3 variant L328_07I/GpL16-k0 (antibody, human IgG1, kappa)
heavy 1: not shown
heavy 2: not shown
light: DIVMTQSPLSLPVTPGEPASISCQASESLVHSNRNTYLHWYLQKPGQSPQLLIYKVSNRFSGVPDRFSGSGSGTDFTLKISRVEAEDVGVYYCSQNTHVPPTFGQGTKVEIERTVAAPSVFIFPPSDEQLKSGTASVVCLLNNFYPREAKVQWKVDNALQSGNSQESVTEQDSKDSTYSLSSTLTLSKADYEKHKVYACEVTHQGLSSPVTKSFNRGEC
notes: as for B1
B7: GpH7-A5/GpH7-B3 variant N325_03V/GpL16-k0 (antibody, human IgG1, kappa)
heavy 1: not shown
heavy 2: not shown
light: DIVMTQSPLSLPVTPGEPASISCQASESLVHSNRNTYLHWYLQKPGQSPQLLIYKVSNRFSGVPDRFSGSGSGTDFTLKISRVEAEDVGVYYCSQNTHVPPTFGQGTKVEIERTVAAPSVFIFPPSDEQLKSGTASVVCLLNNFYPREAKVQWKVDNALQSGNSQESVTEQDSKDSTYSLSSTLTLSKADYEKHKVYACEVTHQGLSSPVTKSFNRGEC
notes: as for B1
B8: GpH7-A5/GpH7-B3 variant A327_18N/GpL16-k0 (antibody, human IgG1, kappa)
heavy 1: not shown
heavy 2: not shown
light: DIVMTQSPLSLPVTPGEPASISCQASESLVHSNRNTYLHWYLQKPGQSPQLLIYKVSNRFSGVPDRFSGSGSGTDFTLKISRVEAEDVGVYYCSQNTHVPPTFGQGTKVEIERTVAAPSVFIFPPSDEQLKSGTASVVCLLNNFYPREAKVQWKVDNALQSGNSQESVTEQDSKDSTYSLSSTLTLSKADYEKHKVYACEVTHQGLSSPVTKSFNRGEC
notes: as for B1
B9: GpH7-A5/GpH7-B3 variant L234_20W/GpL16-k0 (antibody, human IgG1, kappa)
heavy 1: not shown
heavy 2: not shown
light: DIVMTQSPLSLPVTPGEPASISCQASESLVHSNRNTYLHWYLQKPGQSPQLLIYKVSNRFSGVPDRFSGSGSGTDFTLKISRVEAEDVGVYYCSQNTHVPPTFGQGTKVEIERTVAAPSVFIFPPSDEQLKSGTASVVCLLNNFYPREAKVQWKVDNALQSGNSQESVTEQDSKDSTYSLSSTLTLSKADYEKHKVYACEVTHQGLSSPVTKSFNRGEC
notes: as for B1
B10: GpH7-A5/GpH7-B3 variant N325_07I/GpL16-k0 (antibody, human IgG1, kappa)
heavy 1: not shown
heavy 2: not shown
light: DIVMTQSPLSLPVTPGEPASISCQASESLVHSNRNTYLHWYLQKPGQSPQLLIYKVSNRFSGVPDRFSGSGSGTDFTLKISRVEAEDVGVYYCSQNTHVPPTFGQGTKVEIERTVAAPSVFIFPPSDEQLKSGTASVVCLLNNFYPREAKVQWKVDNALQSGNSQESVTEQDSKDSTYSLSSTLTLSKADYEKHKVYACEVTHQGLSSPVTKSFNRGEC
notes: as for B1
B11: GpH7-A5/GpH7-B3 variant N325_01G/GpL16-k0 (antibody, human IgG1, kappa)
heavy 1: not shown
heavy 2: not shown
light: DIVMTQSPLSLPVTPGEPASISCQASESLVHSNRNTYLHWYLQKPGQSPQLLIYKVSNRFSGVPDRFSGSGSGTDFTLKISRVEAEDVGVYYCSQNTHVPPTFGQGTKVEIERTVAAPSVFIFPPSDEQLKSGTASVVCLLNNFYPREAKVQWKVDNALQSGNSQESVTEQDSKDSTYSLSSTLTLSKADYEKHKVYACEVTHQGLSSPVTKSFNRGEC
notes: as for B1
B12: GpH7-A5/GpH7-B3 variant L328_02A/GpL16-k0 (antibody, human IgG1, kappa)
heavy 1: not shown
heavy 2: not shown
light: DIVMTQSPLSLPVTPGEPASISCQASESLVHSNRNTYLHWYLQKPGQSPQLLIYKVSNRFSGVPDRFSGSGSGTDFTLKISRVEAEDVGVYYCSQNTHVPPTFGQGTKVEIERTVAAPSVFIFPPSDEQLKSGTASVVCLLNNFYPREAKVQWKVDNALQSGNSQESVTEQDSKDSTYSLSSTLTLSKADYEKHKVYACEVTHQGLSSPVTKSFNRGEC
notes: as for B1
B13: GpH7-A5/GpH7-B3 variant N325_08L/GpL16-k0 (antibody, human IgG1, kappa)
heavy 1: not shown
heavy 2: not shown
light: DIVMTQSPLSLPVTPGEPASISCQASESLVHSNRNTYLHWYLQKPGQSPQLLIYKVSNRFSGVPDRFSGSGSGTDFTLKISRVEAEDVGVYYCSQNTHVPPTFGQGTKVEIERTVAAPSVFIFPPSDEQLKSGTASVVCLLNNFYPREAKVQWKVDNALQSGNSQESVTEQDSKDSTYSLSSTLTLSKADYEKHKVYACEVTHQGLSSPVTKSFNRGEC
notes: as for B1
B14: GpH7-A5/GpH7-B3 variant N325_04F/GpL16-k0 (antibody, human IgG1, kappa)
heavy 1: not shown
heavy 2: not shown
light: DIVMTQSPLSLPVTPGEPASISCQASESLVHSNRNTYLHWYLQKPGQSPQLLIYKVSNRFSGVPDRFSGSGSGTDFTLKISRVEAEDVGVYYCSQNTHVPPTFGQGTKVEIERTVAAPSVFIFPPSDEQLKSGTASVVCLLNNFYPREAKVQWKVDNALQSGNSQESVTEQDSKDSTYSLSSTLTLSKADYEKHKVYACEVTHQGLSSPVTKSFNRGEC
notes: as for B1
B15: GpH7-A5/GpH7-B3 variant G236_10E/GpL16-k0 (antibody, human IgG1, kappa)
heavy 1: not shown
heavy 2: not shown
light: DIVMTQSPLSLPVTPGEPASISCQASESLVHSNRNTYLHWYLQKPGQSPQLLIYKVSNRFSGVPDRFSGSGSGTDFTLKISRVEAEDVGVYYCSQNTHVPPTFGQGTKVEIERTVAAPSVFIFPPSDEQLKSGTASVVCLLNNFYPREAKVQWKVDNALQSGNSQESVTEQDSKDSTYSLSSTLTLSKADYEKHKVYACEVTHQGLSSPVTKSFNRGEC
notes: as for B1
B16: GpH7-A5/GpH7-B3 variant L235_04F/GpL16-k0 (antibody, human IgG1, kappa)
heavy 1: not shown
heavy 2: not shown
light: DIVMTQSPLSLPVTPGEPASISCQASESLVHSNRNTYLHWYLQKPGQSPQLLIYKVSNRFSGVPDRFSGSGSGTDFTLKISRVEAEDVGVYYCSQNTHVPPTFGQGTKVEIERTVAAPSVFIFPPSDEQLKSGTASVVCLLNNFYPREAKVQWKVDNALQSGNSQESVTEQDSKDSTYSLSSTLTLSKADYEKHKVYACEVTHQGLSSPVTKSFNRGEC
notes: as for B1
B17: GpH7-A5/GpH7-B3 variant L328_04F/GpL16-k0 (antibody, human IgG1, kappa)
heavy 1: not shown
heavy 2: not shown
light: DIVMTQSPLSLPVTPGEPASISCQASESLVHSNRNTYLHWYLQKPGQSPQLLIYKVSNRFSGVPDRFSGSGSGTDFTLKISRVEAEDVGVYYCSQNTHVPPTFGQGTKVEIERTVAAPSVFIFPPSDEQLKSGTASVVCLLNNFYPREAKVQWKVDNALQSGNSQESVTEQDSKDSTYSLSSTLTLSKADYEKHKVYACEVTHQGLSSPVTKSFNRGEC
notes: as for B1
B18: GpH7-A5/GpH7-B3 variant L328_06M/GpL16-k0 (antibody, human IgG1, kappa)
heavy 1: not shown
heavy 2: not shown
light: DIVMTQSPLSLPVTPGEPASISCQASESLVHSNRNTYLHWYLQKPGQSPQLLIYKVSNRFSGVPDRFSGSGSGTDFTLKISRVEAEDVGVYYCSQNTHVPPTFGQGTKVEIERTVAAPSVFIFPPSDEQLKSGTASVVCLLNNFYPREAKVQWKVDNALQSGNSQESVTEQDSKDSTYSLSSTLTLSKADYEKHKVYACEVTHQGLSSPVTKSFNRGEC
notes: as for B1

How the values were obtained:
FcγRIa = biological target: T2, FcγRIa (human, UniProt P12314 16-292); experiment: SPR (Biacore), antibody captured, FcγR as analyte; relative to GpH7-A5/GpH7-B3/GpL16-k0 = 100
T2 construct: extracellular domain; Soluble extracellular domain with C-terminal His tag, used as analyte in Biacore; also called FcgRI; 1a; not shown: His tag attached to the C terminus
Procedure: (§1) The heterodimerized antibodies He Abs in which one of the H chains was introduced with an alteration were assayed for their binding activities to each activating FcγR and inhibitory FcγR according to the method described in Example 4. […] The activating FcγRs in FIGS. 26, 27, 28, and 29 are FcγRIa, FcγRIIa (R), FcγRIIa (H), and FcγRIIIa, respectively.
(§2) Analysis of interaction between objective antibody and the FcγR was carried out using Biacore T100 (GE Healthcare). HBS-EP+ (GE Healthcare) was used as the running buffer, and the measurement temperature was set to 25° C. Chips produced by immobilizing the antigen peptide by the amine coupling method to a Series S Sencor Chip CM5 (GE Healthcare), or alternatively, chips produced by allowing preliminarily biotinylated antigen peptides to interact with and immobilize onto a Series S Sensor Chip SA (certified) (GE Healthcare) were used. Antibodies of interest were captured onto an antigen peptide-immobilized chip, and allowed to interact to each FcγR diluted with running buffer. To regenerate and repeatedly use the chip, the antibodies captured on the chip were washed off by reacting 10 mM glycine-HCl, pH 1.5.

FcγRIIb = biological target: T1, FcγRIIb; experiment: as above
Procedure: as §1, §2

T2 sequence (P12314 16-292): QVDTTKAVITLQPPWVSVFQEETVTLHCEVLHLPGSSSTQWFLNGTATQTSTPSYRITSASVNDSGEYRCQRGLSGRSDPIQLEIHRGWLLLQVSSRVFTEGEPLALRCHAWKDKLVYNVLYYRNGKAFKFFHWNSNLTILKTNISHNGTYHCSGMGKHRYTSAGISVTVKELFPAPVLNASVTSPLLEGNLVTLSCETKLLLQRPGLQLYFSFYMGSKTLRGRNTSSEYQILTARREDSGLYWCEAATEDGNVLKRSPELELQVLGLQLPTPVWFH

Binder	He/Con_1a (FcγRIa)	He/Con_2b (FcγRIIb)
B1	99 % of control (=100)	116 % of control (=100)
B2	92.2 % of control (=100)	111 % of control (=100)
B3	99.9 % of control (=100)	124 % of control (=100)
B4	99 % of control (=100)	149 % of control (=100)
B5	97.6 % of control (=100)	217 % of control (=100)
B6	99.4 % of control (=100)	160 % of control (=100)
B7	95.6 % of control (=100)	111 % of control (=100)
B8	97.7 % of control (=100)	113 % of control (=100)
B9	98.6 % of control (=100)	114 % of control (=100)
B10	94.8 % of control (=100)	171 % of control (=100)
B11	97.1 % of control (=100)	101 % of control (=100)
B12	98.5 % of control (=100)	144 % of control (=100)
B13	97.5 % of control (=100)	197 % of control (=100)
B14	93.2 % of control (=100)	143 % of control (=100)
B15	93.7 % of control (=100)	110 % of control (=100)
B16	97.1 % of control (=100)	118 % of control (=100)
B17	97.9 % of control (=100)	219 % of control (=100)
B18	98.7 % of control (=100)	142 % of control (=100)
